From PMC8307404, “Crystal Structure-Guided Design of Bisubstrate Inhibitors and Photoluminescent Probes for Protein Kinases of the PIM Family” (Molecules, 2021) come the findings set out here.

Square brackets hold non-standard residues; d marks the D form. Peptide text beside a SMILES is read from it. * marks the point of attachment. X3 = O=C(CCCCCNCc1nc2c(sc3cc(Br)cnc32)c(=O)[nH]1)*

Holding throughout (test): Kinase profiling (radiometric filter-binding)
What all share (assay type): biochemical

One data set has as its target FGF-R1 (Homo sapiens, UniProt P11362). The following applies: FGF-R1, 1 µM inhibitor; read-out: Residual activity, %. In a few lines: (§1)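 Human kinases were tested in a radiometric filter-binding panel with ATP at or below each enzyme's KM. Inhibitors were present at a final concentration of 1 µM, and residual activity was reported as a percentage of the uninhibited control.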

Another data set concerns the target T1, MAP4K3 (Homo sapiens, UniProt Q8IVH8).
T1 sequence (Q8IVH8 1-894): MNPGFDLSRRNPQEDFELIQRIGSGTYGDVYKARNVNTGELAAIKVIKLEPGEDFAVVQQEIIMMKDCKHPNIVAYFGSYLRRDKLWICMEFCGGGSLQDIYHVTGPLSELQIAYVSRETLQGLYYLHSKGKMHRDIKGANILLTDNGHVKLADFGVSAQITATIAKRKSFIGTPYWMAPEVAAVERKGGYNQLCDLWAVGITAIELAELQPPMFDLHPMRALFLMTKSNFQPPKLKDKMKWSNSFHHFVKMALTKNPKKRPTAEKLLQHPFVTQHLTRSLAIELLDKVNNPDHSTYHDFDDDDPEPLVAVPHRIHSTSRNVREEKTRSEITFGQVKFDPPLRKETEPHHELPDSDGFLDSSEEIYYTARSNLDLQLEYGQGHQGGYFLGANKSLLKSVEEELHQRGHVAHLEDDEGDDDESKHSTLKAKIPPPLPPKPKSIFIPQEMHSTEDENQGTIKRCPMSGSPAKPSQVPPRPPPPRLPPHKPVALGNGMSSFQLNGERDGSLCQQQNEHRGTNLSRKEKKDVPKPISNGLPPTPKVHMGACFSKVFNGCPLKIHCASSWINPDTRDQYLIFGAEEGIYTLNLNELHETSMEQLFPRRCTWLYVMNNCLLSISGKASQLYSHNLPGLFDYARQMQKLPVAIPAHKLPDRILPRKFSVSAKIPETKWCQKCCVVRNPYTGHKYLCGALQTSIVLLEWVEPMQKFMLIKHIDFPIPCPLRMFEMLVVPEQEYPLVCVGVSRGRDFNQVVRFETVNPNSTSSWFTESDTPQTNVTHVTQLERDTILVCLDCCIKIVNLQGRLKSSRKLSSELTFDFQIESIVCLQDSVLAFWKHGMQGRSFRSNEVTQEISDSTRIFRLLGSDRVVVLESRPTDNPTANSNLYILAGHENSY
Particulars: MAP4K3, 1 µM inhibitor; read-out: Residual activity, %. In a few lines: as §1

For a further data set, the target named is NEK6 (Homo sapiens, UniProt Q9HC98). Particulars: NEK6, 1 µM inhibitor; read-out: Residual activity, %. In a few lines:
as §1

A further data set addresses CSK (Homo sapiens, UniProt P41240). The following applies: 1 µM inhibitor, read-out: Residual activity, %. In a few lines: as §1
The next data set deals with T2, NUAK1 (Homo sapiens, UniProt O60285).
T2 sequence (O60285 1-661): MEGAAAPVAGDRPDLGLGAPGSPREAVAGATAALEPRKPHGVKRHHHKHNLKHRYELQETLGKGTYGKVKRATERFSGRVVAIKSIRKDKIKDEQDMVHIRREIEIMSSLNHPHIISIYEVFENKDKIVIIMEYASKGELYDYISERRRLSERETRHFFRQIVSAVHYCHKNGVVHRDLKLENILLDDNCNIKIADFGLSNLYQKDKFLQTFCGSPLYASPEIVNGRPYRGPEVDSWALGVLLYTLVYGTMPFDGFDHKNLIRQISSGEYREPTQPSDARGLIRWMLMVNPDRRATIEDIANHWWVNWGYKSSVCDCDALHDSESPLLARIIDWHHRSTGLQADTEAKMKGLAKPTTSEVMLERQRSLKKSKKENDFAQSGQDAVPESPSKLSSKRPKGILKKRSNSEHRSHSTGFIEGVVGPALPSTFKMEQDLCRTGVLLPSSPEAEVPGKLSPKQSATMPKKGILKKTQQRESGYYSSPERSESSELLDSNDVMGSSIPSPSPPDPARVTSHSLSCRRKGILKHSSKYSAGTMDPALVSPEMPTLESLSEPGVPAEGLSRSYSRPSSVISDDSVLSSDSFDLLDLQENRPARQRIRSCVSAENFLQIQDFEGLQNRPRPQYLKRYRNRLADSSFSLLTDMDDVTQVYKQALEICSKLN
The following applies: NUAK1, 1 µM inhibitor; read-out: Residual activity, %. In a few lines:
as §1

A further data set addresses TrkA (Homo sapiens, UniProt P04629). The following applies: 1 µM inhibitor, read-out: Residual activity, %. In a few lines:
as §1

The target in a further data set is T3, MKK6 (Homo sapiens, UniProt P52564).
T3 sequence (P52564 1-334): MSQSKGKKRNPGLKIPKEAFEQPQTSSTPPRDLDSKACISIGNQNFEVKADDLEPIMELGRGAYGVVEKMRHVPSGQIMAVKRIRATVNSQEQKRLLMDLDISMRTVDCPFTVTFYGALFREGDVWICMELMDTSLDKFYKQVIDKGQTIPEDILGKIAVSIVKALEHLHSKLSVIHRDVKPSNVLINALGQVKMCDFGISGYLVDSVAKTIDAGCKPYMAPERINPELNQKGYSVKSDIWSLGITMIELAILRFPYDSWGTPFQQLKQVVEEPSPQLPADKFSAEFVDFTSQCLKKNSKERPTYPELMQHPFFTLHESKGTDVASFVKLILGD
Particulars: MKK6, 1 µM inhibitor; read-out: Residual activity, %. In a few lines: as §1

The target of another data set is CAMKKb (Homo sapiens, UniProt Q96RR4). Particulars: 1 µM inhibitor, read-out: Residual activity, %. In a few lines:
as §1

A further data set deals with MARK2 (Homo sapiens, UniProt Q7KZI7). The following applies: MARK2, 1 µM inhibitor; read-out: Residual activity, %. In a few lines:
as §1

The target of the next data set is PKC (Homo sapiens, UniProt P17252). Particulars: first of two PKC lines (Greek letter lost), 1 µM inhibitor, read-out: Residual activity, %. In a few lines:
as §1

In a further data set the target is p38 MAPK (Homo sapiens, UniProt Q15759). Particulars: second of four lines (Greek letter lost), 1 µM inhibitor, read-out: Residual activity, %. In a few lines: as §1
In another data set the target is Src (Homo sapiens, UniProt P12931). Particulars: 1 µM inhibitor, read-out: Residual activity, %. In a few lines:
as §1

Chain of FGF-R1 (P11362 22-822): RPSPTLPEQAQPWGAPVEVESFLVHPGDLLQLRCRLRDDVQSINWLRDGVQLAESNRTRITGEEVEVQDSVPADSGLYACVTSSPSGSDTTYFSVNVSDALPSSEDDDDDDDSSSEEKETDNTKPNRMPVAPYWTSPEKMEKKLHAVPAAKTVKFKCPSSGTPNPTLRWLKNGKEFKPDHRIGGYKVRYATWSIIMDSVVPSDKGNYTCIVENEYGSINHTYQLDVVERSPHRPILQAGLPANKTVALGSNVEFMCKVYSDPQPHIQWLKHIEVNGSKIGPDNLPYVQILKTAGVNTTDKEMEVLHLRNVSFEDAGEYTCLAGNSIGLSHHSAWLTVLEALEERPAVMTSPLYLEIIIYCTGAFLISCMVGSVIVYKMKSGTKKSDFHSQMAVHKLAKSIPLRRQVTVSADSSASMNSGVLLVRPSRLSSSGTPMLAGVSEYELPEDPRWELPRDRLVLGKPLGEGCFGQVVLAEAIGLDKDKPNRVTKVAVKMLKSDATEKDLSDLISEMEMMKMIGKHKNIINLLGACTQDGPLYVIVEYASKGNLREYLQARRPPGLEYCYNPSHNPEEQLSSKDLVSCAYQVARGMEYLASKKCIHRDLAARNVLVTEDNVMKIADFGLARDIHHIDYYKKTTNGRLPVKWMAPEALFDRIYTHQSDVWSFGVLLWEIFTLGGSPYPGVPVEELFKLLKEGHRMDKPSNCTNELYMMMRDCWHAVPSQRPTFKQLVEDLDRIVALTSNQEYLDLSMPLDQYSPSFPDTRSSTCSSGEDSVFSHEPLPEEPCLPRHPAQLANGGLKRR
Chain of TrkA (P04629 33-796): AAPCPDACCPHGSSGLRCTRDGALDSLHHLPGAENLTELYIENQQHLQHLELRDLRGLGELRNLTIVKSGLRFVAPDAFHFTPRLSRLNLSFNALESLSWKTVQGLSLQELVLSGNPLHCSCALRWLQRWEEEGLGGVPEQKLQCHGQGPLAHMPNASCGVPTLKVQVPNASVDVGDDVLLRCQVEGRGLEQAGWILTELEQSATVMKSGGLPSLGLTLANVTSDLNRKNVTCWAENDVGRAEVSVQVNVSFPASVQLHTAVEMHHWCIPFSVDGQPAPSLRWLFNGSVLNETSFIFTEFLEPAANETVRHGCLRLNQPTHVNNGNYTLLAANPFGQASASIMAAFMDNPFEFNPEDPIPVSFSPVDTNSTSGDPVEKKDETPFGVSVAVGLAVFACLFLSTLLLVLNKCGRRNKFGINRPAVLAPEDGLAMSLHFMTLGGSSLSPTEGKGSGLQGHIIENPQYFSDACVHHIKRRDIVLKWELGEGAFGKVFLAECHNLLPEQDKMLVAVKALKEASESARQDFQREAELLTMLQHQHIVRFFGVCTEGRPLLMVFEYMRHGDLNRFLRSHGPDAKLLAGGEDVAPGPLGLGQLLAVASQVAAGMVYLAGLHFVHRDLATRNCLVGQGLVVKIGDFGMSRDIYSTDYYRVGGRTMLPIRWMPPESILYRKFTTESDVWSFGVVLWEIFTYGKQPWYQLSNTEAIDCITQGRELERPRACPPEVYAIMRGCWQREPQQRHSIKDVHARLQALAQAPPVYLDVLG
Chain of CAMKKb (Q96RR4 whole entry): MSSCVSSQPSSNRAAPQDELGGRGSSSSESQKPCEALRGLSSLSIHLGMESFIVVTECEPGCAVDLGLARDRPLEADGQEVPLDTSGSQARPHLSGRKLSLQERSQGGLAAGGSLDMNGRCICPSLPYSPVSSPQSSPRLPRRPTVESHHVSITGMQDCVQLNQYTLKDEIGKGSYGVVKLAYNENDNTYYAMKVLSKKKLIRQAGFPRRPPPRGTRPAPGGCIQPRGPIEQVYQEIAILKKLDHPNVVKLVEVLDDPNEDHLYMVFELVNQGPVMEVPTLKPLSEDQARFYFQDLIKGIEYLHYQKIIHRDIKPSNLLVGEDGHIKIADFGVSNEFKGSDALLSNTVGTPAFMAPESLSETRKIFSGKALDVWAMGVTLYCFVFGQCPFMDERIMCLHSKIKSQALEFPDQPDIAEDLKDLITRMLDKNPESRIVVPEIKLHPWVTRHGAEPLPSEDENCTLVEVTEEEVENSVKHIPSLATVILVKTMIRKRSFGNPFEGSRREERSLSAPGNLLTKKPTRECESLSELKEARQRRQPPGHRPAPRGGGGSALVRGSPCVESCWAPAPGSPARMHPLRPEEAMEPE
Chain of Src (P12931 whole entry): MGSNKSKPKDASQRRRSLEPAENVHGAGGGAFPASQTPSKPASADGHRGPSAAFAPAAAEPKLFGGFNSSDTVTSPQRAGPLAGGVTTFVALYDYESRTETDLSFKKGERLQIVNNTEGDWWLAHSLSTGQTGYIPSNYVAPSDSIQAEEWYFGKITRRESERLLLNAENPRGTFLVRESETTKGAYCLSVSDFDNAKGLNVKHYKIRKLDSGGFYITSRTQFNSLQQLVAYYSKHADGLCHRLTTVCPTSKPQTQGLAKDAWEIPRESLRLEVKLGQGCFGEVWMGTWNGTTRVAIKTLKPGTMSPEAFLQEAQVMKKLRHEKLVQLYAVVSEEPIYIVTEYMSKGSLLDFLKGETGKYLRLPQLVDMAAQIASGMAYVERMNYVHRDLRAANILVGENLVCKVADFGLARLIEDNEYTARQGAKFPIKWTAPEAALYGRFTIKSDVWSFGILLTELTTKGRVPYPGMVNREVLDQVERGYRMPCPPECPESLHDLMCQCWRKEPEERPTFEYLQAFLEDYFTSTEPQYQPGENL
Chain of MARK2 (Q7KZI7 whole entry): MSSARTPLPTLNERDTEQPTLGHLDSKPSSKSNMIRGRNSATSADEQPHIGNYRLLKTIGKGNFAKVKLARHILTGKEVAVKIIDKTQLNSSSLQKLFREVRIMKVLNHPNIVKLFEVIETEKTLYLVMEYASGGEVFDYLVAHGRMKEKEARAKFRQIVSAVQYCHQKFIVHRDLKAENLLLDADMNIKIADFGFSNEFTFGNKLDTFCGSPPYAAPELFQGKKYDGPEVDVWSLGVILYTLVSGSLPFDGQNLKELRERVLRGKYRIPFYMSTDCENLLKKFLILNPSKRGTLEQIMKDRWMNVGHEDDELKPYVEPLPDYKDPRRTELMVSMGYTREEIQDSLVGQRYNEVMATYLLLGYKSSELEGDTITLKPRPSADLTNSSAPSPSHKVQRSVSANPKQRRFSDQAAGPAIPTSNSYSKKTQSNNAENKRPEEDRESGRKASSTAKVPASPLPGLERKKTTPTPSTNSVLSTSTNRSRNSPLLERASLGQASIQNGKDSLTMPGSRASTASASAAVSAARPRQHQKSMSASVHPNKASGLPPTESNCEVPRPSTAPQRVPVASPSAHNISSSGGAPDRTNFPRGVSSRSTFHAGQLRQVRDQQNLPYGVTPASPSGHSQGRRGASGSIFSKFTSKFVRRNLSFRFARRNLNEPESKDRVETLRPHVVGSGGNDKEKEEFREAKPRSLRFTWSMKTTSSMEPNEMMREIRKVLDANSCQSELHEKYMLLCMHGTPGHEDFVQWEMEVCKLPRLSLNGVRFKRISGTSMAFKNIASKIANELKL
Chain of NEK6 (Q9HC98 whole entry): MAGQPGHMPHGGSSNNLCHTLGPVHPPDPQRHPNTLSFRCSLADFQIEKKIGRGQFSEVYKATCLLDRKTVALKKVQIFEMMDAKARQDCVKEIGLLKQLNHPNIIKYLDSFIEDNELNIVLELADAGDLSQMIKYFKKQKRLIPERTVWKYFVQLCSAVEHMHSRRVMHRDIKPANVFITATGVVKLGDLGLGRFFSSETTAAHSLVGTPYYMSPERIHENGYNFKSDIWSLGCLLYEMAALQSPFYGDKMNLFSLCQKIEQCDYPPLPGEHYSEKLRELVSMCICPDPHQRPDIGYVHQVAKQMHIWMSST
Chain of CSK (P41240 whole entry): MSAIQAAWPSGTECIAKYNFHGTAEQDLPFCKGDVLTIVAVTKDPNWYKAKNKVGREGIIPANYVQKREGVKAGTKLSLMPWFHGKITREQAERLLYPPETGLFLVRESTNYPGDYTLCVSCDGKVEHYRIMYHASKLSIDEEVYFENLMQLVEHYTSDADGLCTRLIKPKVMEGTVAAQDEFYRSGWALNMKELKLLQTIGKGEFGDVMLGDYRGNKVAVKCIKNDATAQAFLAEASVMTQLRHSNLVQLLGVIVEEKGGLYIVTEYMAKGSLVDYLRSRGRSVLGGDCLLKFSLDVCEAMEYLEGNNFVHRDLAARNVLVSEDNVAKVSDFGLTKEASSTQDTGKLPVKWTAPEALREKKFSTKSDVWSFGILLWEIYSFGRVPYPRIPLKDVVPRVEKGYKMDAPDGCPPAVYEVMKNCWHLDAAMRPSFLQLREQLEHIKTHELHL

As to `N=C(N)NCCC[C@@H](NC(=O)CCCCCNC(=O)Cn1cnc2c(I)c(I)c(I)c(I)c21)C(=O)N[C@H](CCCNC(=N)N)C(=O)N[C@H](CCCNC(=N)N)C(=O)N[C@H](CCCNC(=N)N)C(=O)N[C@H](CCCNC(=N)N)C(=O)N[C@H](CCCNC(=N)N)C(=O)N[C@H](CCCCN)C(N)=O` [ARC-3125, TIBI-CH2-C(=O)-Ahx-(D-Arg)6-D-Lys-NH2], the remaining activity at 1 µM with FGF-R1 amounted to 100 ± 19%; in the data set with MAP4K3 it was 17 ± 1%; in the data set with NEK6, 97%; with CSK it was 85 ± 2%; with NUAK1, 7 ± 15%; with TrkA, 97 ± 7%. Besides, the remaining activity at 1 µM with MKK6 stood at 110 ± 10%; with CAMKKb, 47 ± 1%; with MARK2, 86 ± 4%; in the data set with PKC, 81 ± 9%; in the data set with p38 MAPK, 80 ± 6%; in the data set with Src it was 153 ± 22%.
As to `N=C(N)NCCC[C@@H](NC(=O)CCCCCNCc1nc2c(sc3cc(Br)cnc32)c(=O)[nH]1)C(=O)N[C@H](CCCNC(=N)N)C(=O)N[C@H](CCCNC(=N)N)C(=O)N[C@H](CCCNC(=N)N)C(=O)N[C@H](CCCNC(=N)N)C(=O)N[C@H](CCCNC(=N)N)C(=O)N[C@H](CCCCN)C(N)=O` [ARC-3126, BPTP-Ahx-(D-Arg)6-D-Lys-NH2] (X3-[dR][dR][dR][dR][dR][dR][dK]-NH2), the remaining activity at 1 µM in the data set with FGF-R1 was determined as 102 ± 3%; with MAP4K3, 81 ± 7%; with NEK6, 85 ± 17%; with CSK, 91 ± 18%; in the data set with NUAK1, 47 ± 7%; with TrkA, 112 ± 21%. For the same molecule, the remaining activity at 1 µM came out at 105 ± 1% with MKK6; 104 ± 13% in the data set with CAMKKb; 103 ± 7% in the data set with MARK2; 115 ± 17% with PKC; 94 ± 4% with p38 MAPK; 103 ± 2% in the data set with Src.
Take `N=C(N)NCCC[C@@H](NC(=O)CNC(=O)[C@@H](CCCNC(=N)N)NC(=O)[C@@H](CCCNC(=N)N)NC(=O)CCCCCCCNCc1nc2c(sc3cc(Br)cnc32)c(=O)[nH]1)C(=O)N[C@H](CCCCN)C(N)=O` [Compound 1, BPTP-Aoc-(D-Arg)2-Gly-D-Arg-D-Lys-NH2]: the remaining activity at 1 µM with FGF-R1 was 142 ± 8%; with MAP4K3, 119 ± 1%; in the data set with NEK6, 107 ± 11%; with CSK, 141 ± 10%; with NUAK1 it was 95 ± 14%; with TrkA it was 106 ± 17%. Besides, the remaining activity at 1 µM was 122 ± 2% in the data set with MKK6; 117 ± 1% in the data set with CAMKKb; 106 ± 10% with MARK2; 112 ± 2% in the data set with PKC; 108 ± 14% with p38 MAPK; 97 ± 3% with Src.
In the case of `N=C(N)NCCC[C@@H](NC(=O)CNC(=O)[C@@H](CCCNC(=N)N)NC(=O)[C@@H](CCCNC(=N)N)NC(=O)CCCCCCCNCc1nc2c(sc3ccc(Br)cc32)c(=O)[nH]1)C(=O)N[C@H](CCCCN)C(N)=O` [Compound 2, BBTP-Aoc-(D-Arg)2-Gly-D-Arg-D-Lys-NH2], the remaining activity at 1 µM came to 126 ± 10% with FGF-R1; 118 ± 3% with MAP4K3; 126 ± 5% with NEK6; 112 ± 20% in the data set with CSK; 102 ± 14% in the data set with NUAK1; 128 ± 13% in the data set with TrkA. Further, the remaining activity at 1 µM in the data set with MKK6 is 121 ± 3%; in the data set with CAMKKb, 108 ± 1%; with MARK2, 107 ± 4%; in the data set with PKC it was 102 ± 4%; in the data set with p38 MAPK, 113 ± 4%; with Src, 110 ± 12%.
Regarding `N=C(N)NCCC[C@@H](NC(=O)CNC(=O)[C@@H](CCCNC(=N)N)NC(=O)[C@@H](CCCNC(=N)N)NC(=O)Cn1cc(CNCc2nc3c(sc4ccc(Br)cc43)c(=O)[nH]2)nn1)C(=O)N[C@H](CCCCN)C(N)=O` [Compound 3, BBTP-Amt-(D-Arg)2-Gly-D-Arg-D-Lys-NH2], the remaining activity at 1 µM was 110 ± 2% in the data set with FGF-R1; 105 ± 2% with MAP4K3; 117 ± 23% in the data set with NEK6; 116 ± 5% in the data set with CSK; 74 ± 6% in the data set with NUAK1; 95 ± 2% with TrkA. In addition, the remaining activity at 1 µM came out at 126 ± 10% with MKK6; 85 ± 4% with CAMKKb; 79% with MARK2; 110 ± 5% in the data set with PKC; 100 ± 6% with p38 MAPK; 119 ± 1% with Src.
